Data as given in article PMC6308133.

Molecular target: yeast Nsp1p FG-fragment Nsp1p-12FF (residues 262-492; 1xFG, 11xFSFG) (yeast) (UniProt P14907)
Experiment: plasmonic nanopore sensing (shift of the extinction dip); cNsp1 grafted to the interior silicon nitride walls of smaller nanopores (upper diameter 80-90 nm, lower 50-60 nm); Kapβ1 added in increasing concentrations in PBS; equilibrium dip shift averaged over ~10 min; fit to a two component Langmuir isotherm

Substance: karyopherinβ1 (from UniProt Q14974 1-876) (natural protein)
- K1 (two component Langmuir isotherm, configuration 1): 341 nM
- K2 (two component Langmuir isotherm, configuration 2): 3.8 µM
